Key:
[1] = tested on: ovariectomized (OVX) female SD rats; experiment: Bone density by DXA in ovariectomized (OVX) rats after hormone administration (Example 1); type: in vivo, rat; conditions: for bone density of the ramal portion / bone density of the femur / bone density of the lumbar vertebrae: four times a week for 10 weeks; for bone density of the ramal portion: FIG. 2; for bone density of the femur / bone density of the lumbar vertebrae: DXA
Experimental: Forty female SD rats were used. At the age of 20 weeks after birth, 35 of the animals were subjected to OVX (ovariectomy) and the remaining five were subjected to Sham operation. Starting at the age of 30 weeks when bone resorption progressed fully, animals of the OVX group were subcutaneously administered with hormones for 10 weeks on a four-times-a-week basis. Five of the group administered with human PTH (1-84) were administered a dose of 10 μg/kg body weight, another five a dose of 40 μg/kg body weight and the last five a dose of 150 μg/kg body weight. The group administered with 17β-estradiol as estrogen consisted of 5 rats, which were administered a dose of […] body weight. Ten rats were administered with both hormones, 17β-estradiol at a dose of 10 μg/kg body weight and human PTH (1-84) at different doses of 10 μg/kg body weight (in 5 rats) and 150 μg/kg body weight (in the other five). After the hormone administration and at the age of 40 weeks after birth, the mandibular bone, femur and lumbar vertebrae were extracted and measured for bone density and bone mineral content by DXA (Aloca). Measurement on the mandibular bone was conduced at two sites, the alveolar bone portion including the posterior teeth and the ramal portion.

[2] = tested on: ovariectomized female SD rats with tooth removal; experiment: Bone density and bone mineral content by DXA in OVX rats with upper jaw posterior teeth extracted (Example 2); type: in vivo, rat; conditions: 150 μg/kg body weight s.c., four times a week for 10 weeks
From the text: Twenty-three female SD rats (body weight; 230-250 g) were used. At the age of 20 weeks after birth, 15 of the animals were subjected to OVX (ovariectomy) and the remaining eight were subjected to Sham operation. Then, at the age of 22 weeks after birth, ten of the ovariectomized rats and four in the Sham operation group had the posterior teeth in the upper jaw extracted. Starting at the age of 30 weeks when bone resorption progressed fully, five of the ovariectomized rats that had the posterior teeth in the upper jaw extracted were subcutaneously administered with human PTH (1-84) at a dose of 150 μg/kg body weight for 10 weeks on a four-time-a-week basis. After the administration of human PTH (1-84) and at the age of 40 weeks after birth, the whole mandibular bone was extracted and the bone densities and bone mineral contents in the whole mandibular bone and the mandibular molar portion were measured by DXA (Aloca).

[3] = OVX rats, 10, 40, 150 μg/kg body weight s.c.
[4] = OVX rats, dose of 150 μg/kg body weight s.c.

Molecule: C[C@]12CC[C@@H]3c4ccc(O)cc4CC[C@H]3[C@@H]1CC[C@@H]2O [17β-estradiol, estra-1,3,5(10)-trien-3,17β-diol, reference compound]
- bone density of the ramal portion ([1]; OVX rats, s.c.): did not recover

B1: human PTH (1-84) (protein, UniProt P01270 32-115, looked up)
Parathyroid hormone: SVSEIQLMHNLGKHLNSMERVEWLRKKLQDVHNFVALGAPLAPRDAGSQRPRKKEDNVLVESHEKSLGEADKADVNVLTKAKSQ
modifications: Parathyroid hormone
notes: human parathyroid hormone consisting of 84 amino acid residues
- bone density of the mandibular alveolar bone portion ([1]; OVX rats, 150 μg/kg body weight human PTH (1-84) alone, s.c., 10 weeks, FIG. 1): significant increases over the OVX group and returned to the level for the Sham operation group
- bone density of the femur [1, 3]: increased in a dose-dependent manner
- bone density of the lumbar vertebrae [1, 3]: increased in a dose-dependent manner
- bone density of the femur [1, 4]: almost recovered to the level for the Sham operation group
- bone density of the lumbar vertebrae [1, 4]: almost recovered to the level for the Sham operation group
- bone density of the ramal portion ([1]; OVX rats, s.c.): did not recover
- bone density in the mandibular bone (summary) ([1]; ovariectomized aged female rats, summary statement): a distinct improvement in bone density
- bone mineral content of whole mandibular bone ([2]; FIG. 3): increased noticeably
- bone mineral content of the mandibular molar portion ([2]; FIG. 4): increased noticeably

— patent publication US20020094951A1, “DENTAL REMEDIES CONTAINING PTH” (priority 1997, published 2002)
